Test [1] addresses co-expressed epitope tagged Ragulator proteins (UniProt Q6IAA8 2-161; Q9Y2Q5 1-125; Q9UHA4 1-124; Q0VGL1 1-99; O43504 1-91). Kind of test: co-immunoprecipitation from HEK-293T cells, immunoblot. How it is done: (§1) Transfection mixes were taken up to a total of 5 μg of DNA using empty pRK5. HEK-293T cells stably expressing FLAG-tagged proteins were rinsed once with ice-cold PBS and lysed in ice-cold lysis buffer (40 mM HEPES pH 7.4, 1% Triton X-100, 10 mM β-glycerol phosphate, 10 mM pyrophosphate, 2.5 mM MgC12 and 1 tablet of EDTA-free protease inhibitor (Roche) per 25 ml buffer). The soluble fractions from cell lysates were isolated by centrifugation at 13,000 rpm for 10 min in a microcentrifuge. […] Immunoprecipitates were washed three times with lysis buffer containing 500 mM NaCl. Immunoprecipitated proteins were denatured by the addition of 50 μL of sample buffer and incubation at RT for 30 min. It is critical that the samples containing SLC38A9 are neither boiled nor frozen prior to resolution by SDS-PAGE and analysis by immunoblotting. A similar protocol was employed when preparing samples for mass spectrometry.

For test [2], the target named is endogenous Ragulator (UniProt Q6IAA8 2-161; Q9Y2Q5 1-125; Q9UHA4 1-124; Q0VGL1 1-99; O43504 1-91). The description is as above. How it is done:
as §1

Test [3] deals with T1, endogenous p14 (UniProt Q9Y2Q5 1-125).
T1 construct: Detected by immunoblot in anti-FLAG immunoprecipitates; also called LAMTOR2
Description: FLAG IP from transfected HEK-293T cells, immunoblot. How it is done: (§2) HEK-293T cells were cultured in DMEM supplemented with 10% inactivated fetal bovine serum, penicillin (100 IU/mL), and streptomycin (100 μg/mL) and maintained at 37° C. and 5% CO₂. Two million HEK-293T cells were plated in 10 cm culture dishes.
as §1
For orientation: A western blot detects proteins with antibodies after separation by electrophoresis.

For test [4], the target named is T2, endogenous RagC (UniProt Q9HB90 2-399).
T2 construct: Detected by immunoblot in anti-FLAG immunoprecipitates; also called RagC GTPase
T2 sequence (Q9HB90 2-399 limits assumed): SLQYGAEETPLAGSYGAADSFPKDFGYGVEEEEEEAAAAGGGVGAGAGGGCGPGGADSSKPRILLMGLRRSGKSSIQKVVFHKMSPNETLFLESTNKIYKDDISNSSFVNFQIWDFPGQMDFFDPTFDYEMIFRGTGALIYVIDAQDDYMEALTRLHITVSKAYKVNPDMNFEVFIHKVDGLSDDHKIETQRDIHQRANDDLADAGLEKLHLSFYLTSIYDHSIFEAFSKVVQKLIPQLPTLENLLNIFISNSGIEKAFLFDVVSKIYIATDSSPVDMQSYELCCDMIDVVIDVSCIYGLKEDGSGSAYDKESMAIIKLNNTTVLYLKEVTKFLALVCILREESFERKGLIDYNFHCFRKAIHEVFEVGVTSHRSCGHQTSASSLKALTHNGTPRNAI
The description is as above. How it is done:
as §2, §1

Test [5] has as its target T3, endogenous p18 (UniProt Q6IAA8 2-161).
T3 construct: Detected by immunoblot in anti-FLAG immunoprecipitates; also called LAMTOR1
The test is described as above. How it is done: as §2, §1

Test [6] addresses T4, endogenous RagA (UniProt Q7L523 1-313).
T4 construct: Detected by immunoblot in anti-FLAG immunoprecipitates; also called RagA GTPase
Described as above. How it is done: as §2, §1

T4 sequence (Q7L523 whole entry): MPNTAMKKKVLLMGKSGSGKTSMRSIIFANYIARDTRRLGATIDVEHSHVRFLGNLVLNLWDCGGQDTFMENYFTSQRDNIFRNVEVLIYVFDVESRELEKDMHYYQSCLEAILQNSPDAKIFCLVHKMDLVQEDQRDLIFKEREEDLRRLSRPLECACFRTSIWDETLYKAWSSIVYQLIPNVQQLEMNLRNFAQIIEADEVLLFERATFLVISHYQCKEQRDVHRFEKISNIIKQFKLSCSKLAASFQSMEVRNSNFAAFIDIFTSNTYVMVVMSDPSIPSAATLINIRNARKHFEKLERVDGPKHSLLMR

B1: FLAG-SLC38A9.2 (other)
chain: DYKDDDDKMNKRIHYYSRLTTPADKALIAPDHVVPAPEECYVYSPLGSAYKLQSYTEGYGKNTSLVTIFMIWNTMMGTSILSIPWGIKQAGFTTGMCVIILMGLLTLYCCYRVVKSRTMMFSLDTTSWEYPDVCRHYFGSFGQWSSLLFSLVSLIGAMIVYWVLMSNFLFNTGKFIFNFIHHINDTDTILSTNNSNPVICPSAGSGGHPDNSSMIFYANDTGAQQFEKWWDKSRTVPFYLVGLLLPLLNFKSPSFFSKFNILGTVSVLYLIFLVTFKAVRLGFHLEFHWFIPTEFFVPEIRFQFPQLTGVLTLAFFIHNCIITLLKNNKKQENNVRDLCIAYMLVTLTYLYIGVLVFASFPSPPLSKDCIEQNFLDNFPSSDTLSFIARIFLLFQMMTVYPLLGYLARVQLLGHIFGDIYPSIFHVLILNLIIVGAGVIMACFYPNIGGIIRYSGAACGLAFVFIYPSLIYIISLHQEERLTWPKLIFHVFIIILGVANLIVQFFM
notes: also called SLC38A9 isoform 2; isoform 2
For the molecule B1, the binding result in test [1] and in test [2] was “no binding” each time.

B2: FLAG-SLC38A9.1 L74A (other)
single chain: MANMNSDSRHLGTSEVDHERDPGPMNIQFEPSDLRSKRPFCIEPTNIVNVNHVIQRVSDHASAMNKRIHYYSRATTPADKALIAPDHVVPAPEECYVYSPLGSAYKLQSYTEGYGKNTSLVTIFMIWNTMMGTSILSIPWGIKQAGFTTGMCVIILMGLLTLYCCYRVVKSRTMMFSLDTTSWEYPDVCRHYFGSFGQWSSLLFSLVSLIGAMIVYWVLMSNFLFNTGKFIFNFIHHINDTDTILSTNNSNPVICPSAGSGGHPDNSSMIFYANDTGAQQFEKWWDKSRTVPFYLVGLLLPLLNFKSPSFFSKFNILGTVSVLYLIFLVTFKAVRLGFHLEFHWFIPTEFFVPEIRFQFPQLTGVLTLAFFIHNCIITLLKNNKKQENNVRDLCIAYMLVTLTYLYIGVLVFASFPSPPLSKDCIEQNFLDNFPSSDTLSFIARIFLLFQMMTVYPLLGYLARVQLLGHIFGDIYPSIFHVLILNLIIVGAGVIMACFYPNIGGIIRYSGAACGLAFVFIYPSLIYIISLHQEERLTWPKLIFHVFIIILGVANLIVQFFM
Turning to B2, the binding result in test [3], in test [4], in test [5] and in test [6] was “no binding” in each case.

B3: FLAG-SLC38A9.1 P90A (other)
single chain: MANMNSDSRHLGTSEVDHERDPGPMNIQFEPSDLRSKRPFCIEPTNIVNVNHVIQRVSDHASAMNKRIHYYSRLTTPADKALIAPDHVVAAPEECYVYSPLGSAYKLQSYTEGYGKNTSLVTIFMIWNTMMGTSILSIPWGIKQAGFTTGMCVIILMGLLTLYCCYRVVKSRTMMFSLDTTSWEYPDVCRHYFGSFGQWSSLLFSLVSLIGAMIVYWVLMSNFLFNTGKFIFNFIHHINDTDTILSTNNSNPVICPSAGSGGHPDNSSMIFYANDTGAQQFEKWWDKSRTVPFYLVGLLLPLLNFKSPSFFSKFNILGTVSVLYLIFLVTFKAVRLGFHLEFHWFIPTEFFVPEIRFQFPQLTGVLTLAFFIHNCIITLLKNNKKQENNVRDLCIAYMLVTLTYLYIGVLVFASFPSPPLSKDCIEQNFLDNFPSSDTLSFIARIFLLFQMMTVYPLLGYLARVQLLGHIFGDIYPSIFHVLILNLIIVGAGVIMACFYPNIGGIIRYSGAACGLAFVFIYPSLIYIISLHQEERLTWPKLIFHVFIIILGVANLIVQFFM
notes: Full-length mutant
B3: the binding result in test [3], in test [4], in test [5] and in test [6] was “no binding” each time.

B4: FLAG-SLC38A9.1 Y71A (other)
single chain: MANMNSDSRHLGTSEVDHERDPGPMNIQFEPSDLRSKRPFCIEPTNIVNVNHVIQRVSDHASAMNKRIHYASRLTTPADKALIAPDHVVPAPEECYVYSPLGSAYKLQSYTEGYGKNTSLVTIFMIWNTMMGTSILSIPWGIKQAGFTTGMCVIILMGLLTLYCCYRVVKSRTMMFSLDTTSWEYPDVCRHYFGSFGQWSSLLFSLVSLIGAMIVYWVLMSNFLFNTGKFIFNFIHHINDTDTILSTNNSNPVICPSAGSGGHPDNSSMIFYANDTGAQQFEKWWDKSRTVPFYLVGLLLPLLNFKSPSFFSKFNILGTVSVLYLIFLVTFKAVRLGFHLEFHWFIPTEFFVPEIRFQFPQLTGVLTLAFFIHNCIITLLKNNKKQENNVRDLCIAYMLVTLTYLYIGVLVFASFPSPPLSKDCIEQNFLDNFPSSDTLSFIARIFLLFQMMTVYPLLGYLARVQLLGHIFGDIYPSIFHVLILNLIIVGAGVIMACFYPNIGGIIRYSGAACGLAFVFIYPSLIYIISLHQEERLTWPKLIFHVFIIILGVANLIVQFFM
notes: Full-length mutant
Turning to B4, the binding result in test [3], in test [4], in test [5] and in test [6] was “no binding” in each case.

B5: FLAG-SLC38A9.1 P85A (other)
single chain: MANMNSDSRHLGTSEVDHERDPGPMNIQFEPSDLRSKRPFCIEPTNIVNVNHVIQRVSDHASAMNKRIHYYSRLTTPADKALIAADHVVPAPEECYVYSPLGSAYKLQSYTEGYGKNTSLVTIFMIWNTMMGTSILSIPWGIKQAGFTTGMCVIILMGLLTLYCCYRVVKSRTMMFSLDTTSWEYPDVCRHYFGSFGQWSSLLFSLVSLIGAMIVYWVLMSNFLFNTGKFIFNFIHHINDTDTILSTNNSNPVICPSAGSGGHPDNSSMIFYANDTGAQQFEKWWDKSRTVPFYLVGLLLPLLNFKSPSFFSKFNILGTVSVLYLIFLVTFKAVRLGFHLEFHWFIPTEFFVPEIRFQFPQLTGVLTLAFFIHNCIITLLKNNKKQENNVRDLCIAYMLVTLTYLYIGVLVFASFPSPPLSKDCIEQNFLDNFPSSDTLSFIARIFLLFQMMTVYPLLGYLARVQLLGHIFGDIYPSIFHVLILNLIIVGAGVIMACFYPNIGGIIRYSGAACGLAFVFIYPSLIYIISLHQEERLTWPKLIFHVFIIILGVANLIVQFFM
notes: Full-length mutant
As for B5, the binding result in test [3], in test [4], in test [5] and in test [6] was “no binding” throughout.

B6: FLAG-SLC38A9.4 (other)
chain: DYKDDDDKLVTIFMIWNTMMGTSILSIPWGIKQAGFTTGMCVIILMGLLTLYCCYRVVKSRTMMFSLDTTSWEYPDVCRHYFGSFGQWSSLLFSLVSLIGAMIVYWVLMSNFLFNTGKFIFNFIHHINDTDTILSTNNSNPVICPSAGSGGHPDNSSMIFYANDTGAQQFEKWWDKSRTVPFYLVGLLLPLLNFKSPSFFSKFNILGTVSVLYLIFLVTFKAVRLGFHLEFHWFIPTEFFVPEIRFQFPQLTGVLTLAFFIHNCIITLLKNNKKQENNVRDLCIAYMLVTLTYLYIGVLVFASFPSPPLSKDCIEQNFLDNFPSSDTLSFIARIFLLFQMMTVYPLLGYLARVQLLGHIFGDIYPSIFHVLILNLIIVGAGVIMACFYPNIGGIIRYSGAACGLAFVFIYPSLIYIISLHQEERLTWPKLIFHVFIIILGVANLIVQFFM
notes: also called SLC38A9 isoform 4; isoform 4
Regarding B6, the binding result in test [1] and in test [2] was “no binding” in each case.

B7: FLAG-LAMP1 (other)
chain: DYKDDDDKAMFMVKNGNGTACIMANFSAAFSVNYDTKSGPKNMTFDLPSDATVVLNRSSCGKENTSDPSLVIAFGRGHTLTLNFTRNATRYSVQLMSFVYNLSDTHLFPNASSKEIKTVESITDIRADIDKKYRCVSGTQVHMNNVTVTLHDATIQAYLSNSSFSRGETRCEQDRPSPTTAPPAPPSPSPSPVPKSPSVDKYNVSGTNGTCLLASMGLQLNLTYERKDNTTVTRLLNINPNKTSASGSCGAHLVTLELHSEGTTVLLFQFGMNASSSRFFLQGIQLNTILPDARDPAFKAANGSLRALQATVGNSYKCNAEEHVRVTKAFSVNIFKVWVQAFKVEGGQFGSVEECLLDENSMLIPIAVGGALAGLVLIVLIAYLVGRKRSHAGYQTI
notes: Control lysosomal membrane protein
Turning to B7, the binding result in test [4] is given as “no binding”.

B8: FLAG-SLC38A9.1 Δ110 (other)
chain: DYKDDDDKTEGYGKNTSLVTIFMIWNTMMGTSILSIPWGIKQAGFTTGMCVIILMGLLTLYCCYRVVKSRTMMFSLDTTSWEYPDVCRHYFGSFGQWSSLLFSLVSLIGAMIVYWVLMSNFLFNTGKFIFNFIHHINDTDTILSTNNSNPVICPSAGSGGHPDNSSMIFYANDTGAQQFEKWWDKSRTVPFYLVGLLLPLLNFKSPSFFSKFNILGTVSVLYLIFLVTFKAVRLGFHLEFHWFIPTEFFVPEIRFQFPQLTGVLTLAFFIHNCIITLLKNNKKQENNVRDLCIAYMLVTLTYLYIGVLVFASFPSPPLSKDCIEQNFLDNFPSSDTLSFIARIFLLFQMMTVYPLLGYLARVQLLGHIFGDIYPSIFHVLILNLIIVGAGVIMACFYPNIGGIIRYSGAACGLAFVFIYPSLIYIISLHQEERLTWPKLIFHVFIIILGVANLIVQFFM
notes: also called SLC38A9 Δ110
B8: the binding result in test [1] and in test [2] was “no binding” throughout.

For the origin of these results see patent publication US20170082633A1 (WHITEHEAD INSTITUTE FOR BIOMEDICAL RESEARCH, published 2017).
